One data set concerns the target T1, PdxS (Actinobacillus pleuropneumoniae, UniProt B3GXB6).
T1 construct: full-length ORF (888 bp), pET22b(+) NdeI/XhoI, His6-tag kept, E. coli BL21(DE3); PdxS alone, without PdxT
Put plainly: PLP formation assay, OD414. The conditions noted are these: 50 mM Tris-HCl pH 8.0, 37°C, PdxS alone, 10 mM ammonium sulfate in place of glutamine. The data set is classed as biochemical.

In a further data set the test system is O=CC(O)COP(=O)(O)O. Put plainly: purified protein. The following applies: 50 mM Tris-HCl pH 8.0, 37°C, PdxS + PdxT mixture, co-substrates ribose 5-phosphate and glutamine, glyceraldehyde 3-phosphate 0–1.0 mM (DL form per methods).
For the next data set, the system named is NC(=O)CC[C@H](N)C(=O)O. Put plainly: purified protein. The following applies: 50 mM Tris-Cl pH 8.0, 37°C, PdxS + PdxT mixture, glutamine 0–15 mM.

T1 sequence (B3GXB6 whole entry): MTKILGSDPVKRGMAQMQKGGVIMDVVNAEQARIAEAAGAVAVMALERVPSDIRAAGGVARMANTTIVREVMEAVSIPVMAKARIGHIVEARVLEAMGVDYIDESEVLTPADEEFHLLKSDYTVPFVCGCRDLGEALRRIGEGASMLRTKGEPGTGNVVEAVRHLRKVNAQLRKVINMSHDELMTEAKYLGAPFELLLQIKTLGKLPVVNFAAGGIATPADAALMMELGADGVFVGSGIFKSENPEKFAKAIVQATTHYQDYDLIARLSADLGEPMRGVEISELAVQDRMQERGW

In the case of `O=CC(O)COP(=O)(O)O` (racemic) [glyceraldehyde 3-phosphate], at PdxS (0.5 mM ribose 5-phosphate), the “PLP formation assay, OD414” value is “the individual PdxS could produce PLP in the addition of ammonium”.
For the compound `O=P(O)(O)OC[C@H]1OC(O)[C@H](O)[C@@H]1O` (stereo partly drawn) [ribose 5-phosphate], the “PLP formation assay, OD414” value at PdxS (1 mM DL-glyceraldehyde 3-phosphate) was “the individual PdxS could produce PLP in the addition of ammonium”.
In the case of “PLP synthase PdxS and PdxT (PLP synthesis activity) (Actinobacillus pleuropneumoniae serovar 7 str. AP76)”, in the data set with O=CC(O)COP(=O)(O)O, the Km was found to be 175.7 ± 23.0 µM and the kcat was determined as 0.000383 ± 1.83e-05 s⁻¹.
Turning to “PdxS and PdxT (PLP synthase; glutaminase activity of PdxT with PdxS) (Actinobacillus pleuropneumoniae serovar 7 str. AP76)”, in the data set on NC(=O)CC[C@H](N)C(=O)O, the Michaelis-Menten constant (Km) stood at 1720 ± 140 µM and the kcat was determined as 0.102 ± 0.00233 s⁻¹.

The values above are taken from paper PMC5407770, “Pyridoxal phosphate synthases PdxS/PdxT are required for Actinobacillus pleuropneumoniae viability, stress tolerance and virulence” (PLoS ONE, 2017).
